Results published in patent publication US20210095021A1 (MacroGenics, published 2021).

Columns and labels:
[1] = biological target: HIV gp140 (CM244, subtype AE, R5-tropic) expressed by HEK 293 D371 cells (HIV (CM244, subtype AE)); assay: cell-based or functional assay
[2] = biological target: HIV gp160 (HxB2) expressed by tetracycline-induced Jurkat 522 FY cells (HIV (HxB2), UniProt P04578 33-856); assay: cell-based or functional assay

Row | Binder | EC50 (ng/mL) of CD8-mediated cytotoxicity, pan T cells, 24 h [1] [ng/mL] | EC50 (ng/mL) of CD8-mediated cytotoxicity, pan T cells, 24 h [2] [ng/mL]
1 | anti-CD3 × anti-HIV env bispecific diabody (anti-HIV env antibody 7B2 and humanized anti-CD3 Antibody 2 binding domains) (bispecific antibody) chain 1: DIVMTQSPDSLAVSPGERATIHCKSSQTLLYSSNNRHSIAWYQQRPGQPPKLLLYWASMRLSGVPDRFSGSGSGTDFTLTINNLQAEDVAIYYCHQYSSHPPTFGHGTRVEIKGGGSGGGGEVQLVESGGGLVQPGGSLRLSCAASGFTFSTYAMNWVRQAPGKGLEWVGRIRSKYNNYATYYADSVKGRFTISRDDSKNSLYLQMNSLKTEDTAVYYCVRHGNFGNSYVSWFAYWGQGTLVTVSSGGCGGGEVAALEKEVAALEKEVAALEKEVAALEK chain 2: QAVVTQEPSLTVSPGGTVTLTCRSSTGAVTTSNYANWVQQKPGQAPRGLIGGTNKRAPWTPARFSGSLLGGKAALTITGAQAEDEADYYCALWYSNLWVFGGGTKLTVLGGGGSGGGGQVQLVQSGGGVFKPGGSLRLSCEASGFTFTEYYMTWVRQAPGKGLEWLAYISKNGEYSKYSPSSNGRFTISRDNAKNSVFLQLDRLSADDTAVYYCARADGLTYFSELLQYIFDLWGQGARVTVSSGGCGGGKVAALKEKVAALKEKVAALKEKVAALKE | 0.006 | 0.49
2 | anti-CD3 × anti-HIV gp120 bispecific diabody (anti-HIV gp120 antibody A32 and humanized anti-CD3 Antibody 2 binding domains) (bispecific antibody) chain 1: QSALTQPPSASGSPGQSVTISCTGTSSDVGGYNYVSWYQHHPGKAPKLIISEVNNRPSGVPDRFSGSKSGNTASLTVSGLQAEDEAEYYCSSYTDIHNFVFGGGTKLTVLGGGSGGGGEVQLVESGGGLVQPGGSLRLSCAASGFTFSTYAMNWVRQAPGKGLEWVGRIRSKYNNYATYYADSVKGRFTISRDDSKNSLYLQMNSLKTEDTAVYYCVRHGNFGNSYVSWFAYWGQGTLVTVSSGGCGGGEVAALEKEVAALEKEVAALEKEVAALEK chain 2: QAVVTQEPSLTVSPGGTVTLTCRSSTGAVTTSNYANWVQQKPGQAPRGLIGGTNKRAPWTPARFSGSLLGGKAALTITGAQAEDEADYYCALWYSNLWVFGGGTKLTVLGGGGSGGGGQVQLQESGPGLVKPSQTLSLSCTVSGGSSSSGAHYWSWIRQYPGKGLEWIGYIHYSGNTYYNPSLKSRITISQHTSENQFSLKLNSVTVADTAVYYCARGTRLRTLRNAFDIWGQGTLVTVSSGGCGGGKVAALKEKVAALKEKVAALKEKVAALKE | 0.024 | 0.75
